Data as given in article PMC3210380.
Where a chain is given by its changes, count along the chain named.

Key:
Aptx full-length WT = target: T1, Aptx full-length WT (Schizosaccharomyces pombe, UniProt O74859 1-232); assay: fluorescence polarization
T1 sequence: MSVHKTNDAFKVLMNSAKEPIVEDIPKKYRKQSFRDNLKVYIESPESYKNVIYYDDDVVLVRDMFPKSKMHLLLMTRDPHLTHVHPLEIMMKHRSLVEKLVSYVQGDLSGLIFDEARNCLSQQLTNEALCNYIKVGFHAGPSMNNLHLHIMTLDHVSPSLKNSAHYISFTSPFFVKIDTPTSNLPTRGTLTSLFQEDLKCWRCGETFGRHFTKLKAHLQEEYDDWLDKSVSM

[1] = target: T2, Aptxcat (HIT-Znf catalytic core) (Schizosaccharomyces pombe, UniProt O74859 30-232); assay: X-ray crystallography
T2 sequence: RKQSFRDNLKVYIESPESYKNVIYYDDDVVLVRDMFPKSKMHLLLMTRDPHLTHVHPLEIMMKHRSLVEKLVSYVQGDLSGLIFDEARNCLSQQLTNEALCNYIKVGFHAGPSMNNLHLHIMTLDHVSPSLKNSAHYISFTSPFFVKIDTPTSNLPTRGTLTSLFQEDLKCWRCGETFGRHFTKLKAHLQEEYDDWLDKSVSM

Aptx F65A = target: T3, Aptx F65A (Schizosaccharomyces pombe, UniProt O74859 1-232, F65A); assay: fluorescence polarization
T3 sequence: T1 sequence with F65A

B1: 39-mer ssDNA (ssDNA)
DNA: CAGAGTCATAATATGCAGGTGCAGGTTATTCATGCTCGG
Kd (Aptx full-length WT): 330 nM

B2: Crystallized duplex, strands A and C (dsDNA)
DNA 1: CCCTG
DNA 2: TATCGGAATCAGGG
modifications: 5'-OH and 3'-OH on both strands
binding result [1]: binds

B3: SSB 39-mer (1-nt gap, 3'- and 5'-phosphates) (dsDNA)
DNA 1: CCGAGCATGAATAACCTGCACCTGCATATTATGACTCTG
DNA 2: CAGAGTCATAATATGCAGG
DNA 3: GCAGGTTATTCATGCTCGG
modifications: 3'-phosphate on S5; 5'-phosphate on S6
Kd (Aptx F65A): 250 nM
Kd (Aptx full-length WT): 80 nM

B4: 39-mer dsDNA (dsDNA)
DNA 1: B1 DNA
DNA 2: B3 DNA 1
Kd (Aptx full-length WT): 190 nM
